Source: patent US20220105163A1

Assays:
[1] = target: Recombinant human IL-6 (human) (UniProt P05231); assay: cell-based or functional assay
[2] = target: IL-6 receptor on TF-1 cells (human) (UniProt P08887); assay: cell-based or functional assay
Sequence of IL-6 receptor on TF-1 cells (human) (P08887 20-468): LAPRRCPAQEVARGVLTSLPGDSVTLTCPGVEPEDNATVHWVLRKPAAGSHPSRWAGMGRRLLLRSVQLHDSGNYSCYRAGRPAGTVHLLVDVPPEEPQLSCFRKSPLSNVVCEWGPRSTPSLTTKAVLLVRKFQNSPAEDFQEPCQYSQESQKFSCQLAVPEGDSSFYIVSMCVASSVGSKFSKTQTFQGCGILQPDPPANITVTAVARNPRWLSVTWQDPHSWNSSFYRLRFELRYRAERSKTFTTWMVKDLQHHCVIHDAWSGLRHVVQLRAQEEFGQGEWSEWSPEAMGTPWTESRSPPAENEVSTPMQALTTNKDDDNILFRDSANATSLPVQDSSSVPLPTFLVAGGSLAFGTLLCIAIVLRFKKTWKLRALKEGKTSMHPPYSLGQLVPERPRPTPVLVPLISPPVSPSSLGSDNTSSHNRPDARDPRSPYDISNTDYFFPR

Sequence of Recombinant human IL-6 (human) (P05231 30-212 limits assumed): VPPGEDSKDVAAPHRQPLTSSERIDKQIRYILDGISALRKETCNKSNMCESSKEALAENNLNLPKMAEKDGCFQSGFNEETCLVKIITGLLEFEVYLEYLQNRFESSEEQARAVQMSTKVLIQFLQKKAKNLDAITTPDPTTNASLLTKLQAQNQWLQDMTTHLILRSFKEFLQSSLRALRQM

IC50 (µg/mL), IL-6 induced TF-1 proliferation [1]	IC50 (µg/mL), IL-6 induced TF-1 proliferation [2]	Substance
> 100 µg/mL		Non GP IgG (antibody)
	0.365 µg/mL	Tocilizumab (antibody)
